These substances were tested against HLA-A*02:01 (Homo sapiens, UniProt P04439, D140Y/D185E/D98H/E176V/E277Q/G131W/G231S/I119V/I121R/I166T/I218V/L300P/L318F/N151K/N90K/P208A/P217A/Q86G/Q94H/R138H/R169H/T345S) (assay: MHC binding assay (UV-ligand exchange, anti-β2m ELISA, peptide exchange yield)). Conditions: binding to HLA-A*02:01.
Summary of the method: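 Peptide-MHC complexes formed by UV-ligand exchange, cleaving a UV-sensitive placeholder peptide in favour of the test peptide. Exchange yield measured by ELISA: monomers diluted 100-fold onto streptavidin-coated plates, 1 h 37 °C, detected with 2 ug/ml HRP anti-β2m and TMB, absorbance at 450 nm.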

Q: How did the “Peptide exchange (MHC class I binding score, peptide exchange yield)” value (shortened to “Peptide exchange”) turn out when “72 (SLLELDGINL; listed as Homo sapiens) [compound 72]” was run?
A: “+++” (>50 = +++)

Q: With “159 (GLVGNPLPSV; listed as Homo sapiens) [compound 159]” as the substance, how does the “Peptide exchange” value read?
A: “++++” (>75% = ++++)

Q: “431 (SLVNVVPKL; listed as Homo sapiens) [compound 431]” was tested. Which “Peptide exchange” value did it give?
A: “++” (>20% = ++)

Q: How did the “Peptide exchange” value turn out when “55 (SLLDLETLSL; listed as Homo sapiens) [compound 55]” was run?
A: “++++” (>75% = ++++)

Q: Which “Peptide exchange” value does the source give for “397 (YLFGERLLEC; listed as Homo sapiens) [compound 397]” here?
A: “+++” (>50 = +++)

Q: For “512 (SLSEIVPCL; listed as Homo sapiens) [compound 512]”, which “Peptide exchange” value is on record?
A: “+++” (>50 = +++)

Q: For “315 (YLQDVVEQA; listed as Homo sapiens) [compound 315]”, which “Peptide exchange” value is on record?
A: “+++” (>50 = +++)

Q: For “493 (GLLGEKTQDLIGV; listed as Homo sapiens) [compound 493]”, which “Peptide exchange” value is on record?
A: “+++” (>50 = +++)

Q: With “261 (YVLEFLEEI; listed as Homo sapiens) [compound 261]” as the substance, how does the “Peptide exchange” value read?
A: “++” (>20% = ++)

Q: Which “Peptide exchange” value does the source give for “320 (KMFEFVEPLL; listed as Homo sapiens) [compound 320]” here?
A: “++++” (>75% = ++++)

Q: For “243 (LLLNELPSV; listed as Homo sapiens) [compound 243]”, which “Peptide exchange” value is on record?
A: “+++” (>50 = +++)

Q: Which “Peptide exchange” value does the source give for “83 (ILAPTVMMI; listed as Homo sapiens) [compound 83]” here?
A: “+++” (>50 = +++)

Q: “479 (SLFGNSGILENV; listed as Homo sapiens) [compound 479]” was tested. Which “Peptide exchange” value did it give?
A: “+++” (>50 = +++)

Q: Which “Peptide exchange” value does the source give for “325 (FIMPATVADATAV; listed as Homo sapiens) [compound 325]” here?
A: “+++” (>50 = +++)

Q: “12 (SLWPDPMEV; listed as Homo sapiens) [compound 12]” was tested. Which “Peptide exchange” value did it give?
A: “+++” (>50 = +++)

Q: With “547 (TLDITPHTV; listed as Homo sapiens) [compound 547]” as the substance, how does the “Peptide exchange” value read?
A: “+++” (>50 = +++)

Q: With “328 (ALNDQVFEI; listed as Homo sapiens) [compound 328]” as the substance, how does the “Peptide exchange” value read?
A: “+++” (>50 = +++)

Q: Which “Peptide exchange” value does the source give for “197 (ALGPEGGRV; listed as Homo sapiens) [compound 197]” here?
A: “++” (>20% = ++)

Q: How did the “Peptide exchange” value turn out when “316 (ILLERLWYV; listed as Homo sapiens) [compound 316]” was run?
A: “+++” (>50 = +++)

Q: “9 (GAAKDLPGV; listed as Homo sapiens) [compound 9]” was tested. Which “Peptide exchange” value did it give?
A: “++” (>20% = ++)

Q: With “544 (LLWDVPAPSL; listed as Homo sapiens) [compound 544]” as the substance, how does the “Peptide exchange” value read?
A: “+++” (>50 = +++)

Q: “18 (YLVAKLVEV; listed as Homo sapiens) [compound 18]” was tested. Which “Peptide exchange” value did it give?
A: “++” (>20% = ++)

Q: For “109 (IILSILEQA; listed as Homo sapiens) [compound 109]”, which “Peptide exchange” value is on record?
A: “++++” (>75% = ++++)

Q: How did the “Peptide exchange” value turn out when “560 (ALWDIETGQQTTT; listed as Homo sapiens) [compound 560]” was run?
A: “+++” (>50 = +++)

Q: How did the “Peptide exchange” value turn out when “365 (YVIDQGETDVYV; listed as Homo sapiens) [compound 365]” was run?
A: “+++” (>50 = +++)

Q: How did the “Peptide exchange” value turn out when “329 (FLVTLNNVEV; listed as Homo sapiens) [compound 329]” was run?
A: “++++” (>75% = ++++)

Q: For “396 (ALLPDLPAL; listed as Homo sapiens) [compound 396]”, which “Peptide exchange” value is on record?
A: “+++” (>50 = +++)

Q: Which “Peptide exchange” value does the source give for “147 (SLLEAVSFL; listed as Homo sapiens) [compound 147]” here?
A: “+++” (>50 = +++)

Q: Which “Peptide exchange” value does the source give for “609 (ALWKQLLEL; listed as Homo sapiens) [compound 609]” here?
A: “+++” (>50 = +++)

Q: For “550 (FLYDEIEAEVNL; listed as Homo sapiens) [compound 550]”, which “Peptide exchange” value is on record?
A: “+++” (>50 = +++)

Q: Which “Peptide exchange” value does the source give for “15 (VLLTFKIFL; listed as Homo sapiens) [compound 15]” here?
A: “++” (>20% = ++)

Q: With “558 (GLLENIPRV; listed as Homo sapiens) [compound 558]” as the substance, how does the “Peptide exchange” value read?
A: “+++” (>50 = +++)

Q: With “433 (AMLNEPWAV; listed as Homo sapiens) [compound 433]” as the substance, how does the “Peptide exchange” value read?
A: “+++” (>50 = +++)

Q: Which “Peptide exchange” value does the source give for “374 (FLLQQHLISA; listed as Homo sapiens) [compound 374]” here?
A: “++” (>20% = ++)

Q: For “222 (NLIENVQRL; listed as Homo sapiens) [compound 222]”, which “Peptide exchange” value is on record?
A: “++” (>20% = ++)

Q: Which “Peptide exchange” value does the source give for “530 (VMYADIGGMDI; listed as Homo sapiens) [compound 530]” here?
A: “+++” (>50 = +++)

Q: For “331 (KVDTVWVNV; listed as Homo sapiens) [compound 331]”, which “Peptide exchange” value is on record?
A: “+++” (>50 = +++)

Q: With “378 (ALGYFVPYV; listed as Homo sapiens) [compound 378]” as the substance, how does the “Peptide exchange” value read?
A: “+++” (>50 = +++)

Q: “248 (FLFPNQYVDV; listed as Homo sapiens) [compound 248]” was tested. Which “Peptide exchange” value did it give?
A: “+++” (>50 = +++)

Q: How did the “Peptide exchange” value turn out when “485 (NVPDSFNEV; listed as Homo sapiens) [compound 485]” was run?
A: “+++” (>50 = +++)

Q: For “227 (ALMNTLLYL; listed as Homo sapiens) [compound 227]”, which “Peptide exchange” value is on record?
A: “++” (>20% = ++)

Q: With “264 (SLQEQLHSV; listed as Homo sapiens) [compound 264]” as the substance, how does the “Peptide exchange” value read?
A: “+++” (>50 = +++)

Q: For “522 (TLWYRSPEV; listed as Homo sapiens) [compound 522]”, which “Peptide exchange” value is on record?
A: “++” (>20% = ++)

Q: Which “Peptide exchange” value does the source give for “621 (VLMDRLPSLL; listed as Homo sapiens) [compound 621]” here?
A: “++++” (>75% = ++++)

Q: “246 (LLWEVVSQL; listed as Homo sapiens) [compound 246]” was tested. Which “Peptide exchange” value did it give?
A: “+++” (>50 = +++)

Q: Which “Peptide exchange” value does the source give for “351 (SLIPNLRNV; listed as Homo sapiens) [compound 351]” here?
A: “+++” (>50 = +++)

Q: “505 (SLAPGDVVRQV; listed as Homo sapiens) [compound 505]” was tested. Which “Peptide exchange” value did it give?
A: “++” (>20% = ++)

Q: “390 (ALFMKQIYL; listed as Homo sapiens) [compound 390]” was tested. Which “Peptide exchange” value did it give?
A: “+++” (>50 = +++)

Q: With “313 (VLFDDELLMV; listed as Homo sapiens) [compound 313]” as the substance, how does the “Peptide exchange” value read?
A: “+++” (>50 = +++)

Q: With “310 (FLVDTPLARA; listed as Homo sapiens) [compound 310]” as the substance, how does the “Peptide exchange” value read?
A: “++++” (>75% = ++++)

Q: With “234 (ALMEDTGRQML; listed as Homo sapiens) [compound 234]” as the substance, how does the “Peptide exchange” value read?
A: “++” (>20% = ++)

Q: For “145 (FLATSGTLAGI; listed as Homo sapiens) [compound 145]”, which “Peptide exchange” value is on record?
A: “++” (>20% = ++)

Q: Which “Peptide exchange” value does the source give for “90 (TLLQIIETV; listed as Homo sapiens) [compound 90]” here?
A: “+++” (>50 = +++)

Q: With “403 (KLYDRILRV; listed as Homo sapiens) [compound 403]” as the substance, how does the “Peptide exchange” value read?
A: “++” (>20% = ++)

Q: How did the “Peptide exchange” value turn out when “140 (YMDAPKAAL; listed as Homo sapiens) [compound 140]” was run?
A: “++” (>20% = ++)

Q: “154 (ALDDGTPAL; listed as Homo sapiens) [compound 154]” was tested. Which “Peptide exchange” value did it give?
A: “++” (>20% = ++)

Q: How did the “Peptide exchange” value turn out when “492 (SLFDGFADGLGV; listed as Homo sapiens) [compound 492]” was run?
A: “+++” (>50 = +++)

Q: With “379 (IMEGTLTRV; listed as Homo sapiens) [compound 379]” as the substance, how does the “Peptide exchange” value read?
A: “++” (>20% = ++)

Q: With “131 (FVPPVTVFPSL; listed as Homo sapiens) [compound 131]” as the substance, how does the “Peptide exchange” value read?
A: “++” (>20% = ++)

Q: How did the “Peptide exchange” value turn out when “392 (ALLHPQGFEV; listed as Homo sapiens) [compound 392]” was run?
A: “++” (>20% = ++)

Q: How did the “Peptide exchange” value turn out when “287 (FLNEFFLNV; listed as Homo sapiens) [compound 287]” was run?
A: “+++” (>50 = +++)

Q: For “275 (YLVYILNEL; listed as Homo sapiens) [compound 275]”, which “Peptide exchange” value is on record?
A: “++” (>20% = ++)

Q: How did the “Peptide exchange” value turn out when “520 (LAVHPSGVAL; listed as Homo sapiens) [compound 520]” was run?
A: “+” (>10% = +)

Q: For “279 (ALWGGTQPLL; listed as Homo sapiens) [compound 279]”, which “Peptide exchange” value is on record?
A: “++” (>20% = ++)

Q: For “308 (SQYSGQLHEV; listed as Homo sapiens) [compound 308]”, which “Peptide exchange” value is on record?
A: “+++” (>50 = +++)

Q: “356 (KLLGKLPEL; listed as Homo sapiens) [compound 356]” was tested. Which “Peptide exchange” value did it give?
A: “+++” (>50 = +++)

Q: For “226 (MLYVVPIYL; listed as Homo sapiens) [compound 226]”, which “Peptide exchange” value is on record?
A: “++” (>20% = ++)

— patent US10239925B2, “Peptides and combination of peptides for use in immunotherapy against ovarian cancer and other cancers” (IMMATICS BIOTECHNOLOGIES GMBH, priority 2015, dated 2019)
